Tests used:
[1] = target: NY-ESO-1 peptide on HLA-A*02:01 (human); test: SPR as tabulated in Table 2 (BIAcore analysis); reference TCR; soluble, other
[2] = target: Tm NY-ESO (human); test: flow cytometry, tetramer staining of transduced CD8+ T cells; nt control Q2 0.79
[3] = target: Tm NY-ESO (human); test: flow cytometry, tetramer staining of transduced CD8+ T cells; nt control Q1 0.084
[4] = target: Tm NY-ESO (human); test: flow cytometry, tetramer staining of transduced CD4+ T cells; nt control Q1 0.020
[5] = target: Tm NY-ESO (human); test: flow cytometry, tetramer staining of transduced CD4+ T cells; nt control Q2 0.56

Kd [1] [µM]	koff [1] [s⁻¹]	kon [1] [M⁻¹ s⁻¹]	Q2 (Tm NY-ESO+ CD8+), percent of cells [2] [%]	Q1 (Tm NY-ESO+ CD8-), percent of cells [3] [%]	Q1 (Tm NY-ESO+ CD4-), percent of cells [4] [%]	Q2 (Tm NY-ESO+ CD4+), percent of cells [5] [%]	Substance
14.2	0.12	17000	–	–	–	–	1G4
–	–	–	64.9	2.53	0.89	63.2	1G4LY TCR on transduced T cells

From patent US20260103503A1
